The target in data set [1] is 6xHis-Rdh54-mCherry (S. cerevisiae) (UniProt P38086).
The target of data set [2] is 6xHis-Rdh54T851A-mCherry (S. cerevisiae). As to the kind of experiment: single-molecule fluorescence intensity of clusters (TIRF, DNA curtains); as the cluster size estimate, but 1 nM Rdh54-mCherry mixed with 0.1 or 10 nM GFP-Rad53 or 10 nM GFP-Rad53D339A before injection onto dsDNA curtains.
Data set [3] deals with 6xHis-Rdh54T851AS852A-mCherry (S. cerevisiae). As to the kind of experiment: single-molecule fluorescence intensity of clusters (TIRF, DNA curtains); Rdh54-mCherry clusters bound to dsDNA; background-subtracted cluster intensity divided by the mean intensity drop of one fluorophore; estimated molecules per cluster.
For data set [4], the target named is 6xHis-Rdh54S852A-mCherry (S. cerevisiae). As to the kind of experiment: single-molecule fluorescence intensity of clusters (TIRF, DNA curtains); as the cluster size estimate, but 1 nM Rdh54-mCherry mixed with 0.1 or 10 nM GFP-Rad53 or 10 nM GFP-Rad53D339A before injection onto dsDNA curtains.
The target is the same in data set [5]. As to the kind of experiment: single-molecule fluorescence intensity of clusters (TIRF, DNA curtains); Rdh54-mCherry clusters bound to dsDNA; background-subtracted cluster intensity divided by the mean intensity drop of one fluorophore; estimated molecules per cluster.
Data set [6] deals with the molecule itself. As to the kind of experiment: single-molecule photobleaching step counting (TIRF, DNA curtains); Rdh54-mCherry bound to double-tethered lambda dsDNA; 561 nm laser unshuttered at 25% power, 200 ms integration; steps counted for smaller groups.

Values joined by “and” are separate entries in the source; they are usually repeats but may differ in a detail not shown here. Equal values may be shown once.

In data set [1], “6xHis-Rdh54T851A (unlabeled) (natural protein)” yielded a translocation rate on dsDNA of WT Rdh54 mixed with equimolar unlabeled Rdh54T851A (translocase poisoning) of 23 bp/s. In the case of “6xHis-Rdh54T851A-mCherry (natural protein)”, the median estimated molecules per cluster with 10 nM GFP-Rad53 (molecules per cluster) in data set [2] is 12.1. Consider “6xHis-Rdh54T851AS852A-mCherry (natural protein)”, for which the median estimated molecules per cluster (molecules per cluster) in data set [3] was 5.1.

For “6xHis-Rdh54S852A-mCherry (natural protein)”, the median estimated molecules per cluster with 10 nM GFP-Rad53 (molecules per cluster) in data set [4] was 5.7. Moreover, the median estimated molecules per cluster (molecules per cluster) in data set [5] was 4.22.

B1: 6xHis-Rdh54-mCherry (natural protein, S. cerevisiae, UniProt P38086 35-958, looked up)
chain: MQIPKYENKPFKPPRRVGSNKYTQLKPTATAVTTAPISKAKVTVNLKRSISAGPTLNLAKKPNNLSSNENTRYFTIMYRKPTTKKHKTWSGDGYATLKASSDKLCFYNEAGKFLGSSMLPSDSDSLFETLFKAGSNEVQLDYELKENAEIRSAKEALSQNMGNPSPPTTSTTETVPSTKNDGGKYQMPLSQLFSLNTVKRFKSVTKQTNEHMTTVPKTSQNSKAKKYYPVFDVNKIDNPIVMNKNAAAEVDVIVDPLLGKFLRPHQREGVKFMYDCLMGLARPTIENPDIDCTTKSLVLENDSDISGCLLADDMGLGKTLMSITLIWTLIRQTPFASKVSCSQSGIPLTGLCKKILVVCPVTLIGNWKREFGKWLNLSRIGVLTLSSRNSPDMDKMAVRNFLKVQRTYQVLIIGYEKLLSVSEELEKNKHLIDMLVCDEGHRLKNGASKILNTLKSLDIRRKLLLTGTPIQNDLNEFFTIIDFINPGILGSFASFKRRFIIPITRARDTANRYNEELLEKGEERSKEMIEITKRFILRRTNAILEKYLPPKTDIILFCKPYSQQILAFKDILQGARLDFGQLTFSSSLGLITLLKKVCNSPGLVGSDPYYKSHIKDTQSQDSYSRSLNSGKLKVLMTLLEGIRKGTKEKVVVVSNYTQTLDIIENLMNMAGMSHCRLDGSIPAKQRDSIVTSFNRNPAIFGFLLSAKSGGVGLNLVGASRLILFDNDWNPSVDLQAMSRIHRDGQKKPCFIYRLVTTGCIDEKILQRQLMKNSLSQKFLGDSEMRNKESSNDDLFNKEDLKDLFSVHTDTKSNTHDLICSCDGLGEEIEYPETNQQQNTVELRKRSTTTWTSALDLQKKMNEAATNDDAKKSQYIRQCLVHYKHIDPARQDELFDEVITDSFTELKDSITFAFVKPGEICLREQ
notes: Rdh54, S. cerevisiae DNA translocase; Name printed as 6xHis-Rdh54-mCherry, plasmid pET15-6xHis-Rdh54; also called WT-Rdh54; WT; source: E. coli Rosetta 2 BL21 (DE3), purified (Ni-NTA, SP cation exchange, S300 SEC)
Take B1: the stoichiometry N – broadly, a count of units in the complex or per binding partner – in data set [6] was 2 and 4 and 3.

Values taken from paper PMC10681728, “Rad53 regulates the lifetime of Rdh54 at homologous recombination intermediates” (Nucleic Acids Research, 2023).
